Assay results from PMC4853038.

How the values were obtained:
[1] = Western blot of 293T-EmGFP lysates; details: glycan lost; control: wild type
[2] = syncytia formation in 293T-EmGFP cells, 36 h; details: glycan lost; control: wild type
[3] = co-transfection of WT and mutant, 293T-EmGFP syncytia; details: glycan lost; control: WT syncytin-2 plus empty vector

Substance | expression_or_secretion [1] | other: fusogenic activity, other: fusion score (−, +, ++) [2] | other: fusogenic activity of co-expressed wild type [3]
syncytin-2: N247Q | no change | no change | –
syncytin-2: N177Q | no change | no change | –
syncytin-2: N332Q | no change | increases | –
syncytin-2: N146Q | no change | no change | –
syncytin-2: N133Q | no change | – | decreases
syncytin-2: N241Q | no change | no change | –
syncytin-2: N443Q | no change | – | decreases
syncytin-2: N220Q | no change | no change | –
